Data set [1] concerns T1, O=[N+]([O-])c1ccc(O[C@@H]2O[C@H](CO)[C@@H](O)[C@H](O)[C@H]2O)cc1.
T1 construct: pET-22b(+) NdeI/XhoI, C-terminal His6 (kept), E. coli BL21(DE3), Ni-NTA purified; GH1, EC 3.2.1.21; residues V227, H228, N301, V302
Put plainly: purified protein. The data set is classed as biochemical, uncultured bacterium. The note with it: no glucose, 50 mM Na2HPO4-citric acid buffer pH 7.0, optimal conditions.

Data set [2] has as its system T2, O=[N+]([O-])c1ccc(O[C@@H]2O[C@H](CO)[C@@H](O)[C@H](O)[C@H]2O)cc1.
T2 construct: pET-22b(+) NdeI/XhoI, C-terminal His6 (kept), E. coli BL21(DE3), Ni-NTA purified; GH1, EC 3.2.1.21; residues T228, Q301, F302
The data set is described as follows: purified protein. The note with it: no glucose, 50 mM Na2HPO4-citric acid buffer pH 7.0, optimal conditions. The data set is classed as biochemical, uncultured bacterium.

A further data set has as its target T3, Bgl1A (uncultured bacterium, UniProt D5KX75).
T3 construct: pET-22b(+) NdeI/XhoI, C-terminal His6 (kept), E. coli BL21(DE3), Ni-NTA purified; GH1, EC 3.2.1.21; residues T228, Q301, F302
T3 sequence (D5KX75 1-442): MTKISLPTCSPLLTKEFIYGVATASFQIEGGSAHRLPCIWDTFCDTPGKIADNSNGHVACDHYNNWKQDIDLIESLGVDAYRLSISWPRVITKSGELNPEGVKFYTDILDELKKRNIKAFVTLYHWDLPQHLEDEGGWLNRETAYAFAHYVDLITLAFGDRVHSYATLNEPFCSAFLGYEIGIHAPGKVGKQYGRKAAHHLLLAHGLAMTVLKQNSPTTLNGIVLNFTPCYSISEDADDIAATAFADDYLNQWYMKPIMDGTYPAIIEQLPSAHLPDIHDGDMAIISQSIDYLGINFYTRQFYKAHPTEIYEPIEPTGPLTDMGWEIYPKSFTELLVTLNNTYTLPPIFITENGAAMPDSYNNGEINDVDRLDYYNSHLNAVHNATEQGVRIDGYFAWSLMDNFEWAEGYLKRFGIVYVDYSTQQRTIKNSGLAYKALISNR
Put plainly: relative activity on pNPG versus glucose concentration. In kind it is biochemical. Particulars: pH […], stimulation at low concentration, transglycosylation acceptor.

Data set [3] has as its target T4, Bgl1B (uncultured bacterium, UniProt D0VEC8).
T4 construct: pET-22b(+) NdeI/XhoI, C-terminal His6 (kept), E. coli BL21(DE3), Ni-NTA purified; GH1, EC 3.2.1.21; residues V227, H228, N301, V302
T4 sequence (D0VEC8 1-449): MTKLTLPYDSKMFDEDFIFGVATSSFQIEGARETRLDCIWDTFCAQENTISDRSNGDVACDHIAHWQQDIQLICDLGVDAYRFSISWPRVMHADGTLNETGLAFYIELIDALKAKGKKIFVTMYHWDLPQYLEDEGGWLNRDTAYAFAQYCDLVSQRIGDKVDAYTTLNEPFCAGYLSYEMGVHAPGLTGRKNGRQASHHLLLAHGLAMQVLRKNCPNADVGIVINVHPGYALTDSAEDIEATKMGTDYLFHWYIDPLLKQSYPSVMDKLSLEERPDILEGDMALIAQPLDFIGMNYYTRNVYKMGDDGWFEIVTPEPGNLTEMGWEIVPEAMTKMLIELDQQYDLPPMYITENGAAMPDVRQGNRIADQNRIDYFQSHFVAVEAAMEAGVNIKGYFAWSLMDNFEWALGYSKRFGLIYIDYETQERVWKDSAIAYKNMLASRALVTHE
The data set is described as above. In kind it is biochemical. Particulars: pH […], product inhibition, competitive.

In data set [4] the target is T5, Bgl1B (uncultured bacterium, UniProt D0VEC8, H228T).
T5 construct: pET-22b(+) NdeI/XhoI, C-terminal His6 (kept), E. coli BL21(DE3), Ni-NTA purified; GH1, EC 3.2.1.21; residues V227, H228, N301, V302
T5 sequence (D0VEC8 1-449 H228T): T4 sequence (D0VEC8 1-449) with H228T
The description is as above. The data set is classed as biochemical. The note with it: pH […], stimulation at low concentration, transglycosylation acceptor.

Residue numbers refer to the chain shown, from its start.

As a reminder, the Km is the concentration of substrate that gives half-maximal velocity. As a reminder, the Vmax is the rate approached at saturating substrate. What is called kcat/Km is the second-order rate constant that governs catalysis at low substrate concentration. Turning to “Bgl1B (uncultured bacterium; N301Q/V302F)”, in data set [1], the Michaelis constant (Km) was 830 ± 70 µM, the maximum rate (Vmax) worked out at 8.84 µM/min and the kcat/Km is 2860 M⁻¹ s⁻¹.

With Bgl1A (uncultured bacterium), in data set [2], the Km amounted to 690 ± 70 µM, the maximal velocity (Vmax) turned out to be 2.7 µM/min and the kcat/Km came out at 35500 M⁻¹ s⁻¹.

For the compound Bgl1B (uncultured bacterium), in data set [1], the Michaelis constant (Km) was determined as 270 ± 20 µM, the maximum rate (Vmax) was found to be 12.6 µM/min and the kcat/Km amounted to 74700 M⁻¹ s⁻¹.

Take `OC[C@H]1OC(O)[C@H](O)[C@@H](O)[C@@H]1O` (stereo partly drawn) [glucose]: the relative activity entry at Bgl1A was “Bgl1A displayed high glucose tolerance, and was stimulated by low concentrations of glucose”; at Bgl1B [3] it was “the activity of Bgl1B was persistently inhibited by glucose”; at Bgl1B [4] it was “only B:H228T exhibited glucose stimulation, essentially distinctive from wild-type Bgl1B”.

Bgl1B (uncultured bacterium; H228T): in data set [1], the Km is 360 ± 30 µM, the Vmax was 10.1 µM/min and the kcat/Km amounted to 24200 M⁻¹ s⁻¹.
